Data reported in patent US11040083B2, “Polypeptides comprising vinculin binding sites for the treatment of proliferation and/or adhesion related diseases” (PARIS SCIENCES ET LETTRES—QUARTIER LATIN, priority 2015, dated 2021).
Read-outs that look alike come from different tables or passages of the source.

Tests used:
talin H1-H4 [1] = target: T1, talin H1-H4 (Homo sapiens, UniProt Q9Y490); assay: SEC-MALS; format: binding; details: 20 μM equimolar
Procedure: The purified proteins IpaA 483-633 (A483), IpaA 524-633 (A524) and Talin H1-H4 (TlnH1-H4) were used at 20 μM equimolar concentrations and incubated at 4° C. for one hour in binding buffer (25 mM Tris-HCL pH 7.0, 100 mM NaCl and 1 mM β-Mercaptoethanol). The protein mixtures (200 μL) were analyzed by size-exclusion chromatography (SEC) on a Superdex 200 10/300 GL (GE Healthcare) using a Shimadzu Prominence HPLC. Multi-angle laser light scattering (MALS) was measured with a MiniDAWN TREOS (Wyatt Technology). Refractometry was monitored using an Optilab T-rEX (Wyatt Technology).

talin H1-H4 [2] = target: T1, talin H1-H4; assay: Isothermal titration calorimetry; format: binding; details: 25° C.; for ΔG free enthalpy / ΔH enthalpy / −TΔS entropic contribution / Kd: ITC; for Kd: read-out: KD (affinity constant)
Procedure: Vinculin, IpaA proteins and peptides were extensively dialyzed in binding buffer (25 mM Tris pH 7.4, 100 mM NaCl and 1 mM β-Mercaptoethanol). The final concentration of all proteins/peptides was measured using a BCA test (Thermo Scientific). Talin-IpaA binding was measured by microcalorimetry using an ITC200 calorimeter (MicroCal) at 25° C. 200 μL of 20-100 μM of talin H1-H4 protein was added to the cell and binding in the presence of different concentrations of IpaA VBS1, VBS2 or VBS3 peptides was measured. In other experiments, 200 μL of a 16 μM equimolar mix of A483:HVD1 was incubated for one hour at room temperature prior to addition to the cell. Binding to talin H1-H4 (100 μM) was measured. Typically, 20-40 injections of 2 μL of ligand were made with intervals of 320 seconds between each addition, with a reference power of 12 μcal/sec. Data were analyzed using the MicroCal software provided by manufacturer.

melanocytes = assay: Matrigel invasion assay; format: cell-based; details: 24-hour incubation, three independent experiments
Procedure: Cells were transfected by GFP-A524, GFP-A483 or Mock-transfected (without DNA, as a control).
Cells were further trypsinized, collected, and deposited in a matrigel insert. Following a 24-hour incubation, the matrigel was remove, the membrane was fixed and processed for fluorescence straining of cell nuclei with DAPI. Cells that transmigrated across the matrigel were scored (FIG. 24B).

[3] = target: T2, full-length vinculin (HV) (Homo sapiens, UniProt P18206); assay: ELISA solid phase binding assay; details: IpaA construct immobilized on the solid phase, HV as soluble ligand
T2 construct: with full-length vinculin (HV) in solid phase assays
T2 sequence (P18206 1-1066 isoform P18206-2): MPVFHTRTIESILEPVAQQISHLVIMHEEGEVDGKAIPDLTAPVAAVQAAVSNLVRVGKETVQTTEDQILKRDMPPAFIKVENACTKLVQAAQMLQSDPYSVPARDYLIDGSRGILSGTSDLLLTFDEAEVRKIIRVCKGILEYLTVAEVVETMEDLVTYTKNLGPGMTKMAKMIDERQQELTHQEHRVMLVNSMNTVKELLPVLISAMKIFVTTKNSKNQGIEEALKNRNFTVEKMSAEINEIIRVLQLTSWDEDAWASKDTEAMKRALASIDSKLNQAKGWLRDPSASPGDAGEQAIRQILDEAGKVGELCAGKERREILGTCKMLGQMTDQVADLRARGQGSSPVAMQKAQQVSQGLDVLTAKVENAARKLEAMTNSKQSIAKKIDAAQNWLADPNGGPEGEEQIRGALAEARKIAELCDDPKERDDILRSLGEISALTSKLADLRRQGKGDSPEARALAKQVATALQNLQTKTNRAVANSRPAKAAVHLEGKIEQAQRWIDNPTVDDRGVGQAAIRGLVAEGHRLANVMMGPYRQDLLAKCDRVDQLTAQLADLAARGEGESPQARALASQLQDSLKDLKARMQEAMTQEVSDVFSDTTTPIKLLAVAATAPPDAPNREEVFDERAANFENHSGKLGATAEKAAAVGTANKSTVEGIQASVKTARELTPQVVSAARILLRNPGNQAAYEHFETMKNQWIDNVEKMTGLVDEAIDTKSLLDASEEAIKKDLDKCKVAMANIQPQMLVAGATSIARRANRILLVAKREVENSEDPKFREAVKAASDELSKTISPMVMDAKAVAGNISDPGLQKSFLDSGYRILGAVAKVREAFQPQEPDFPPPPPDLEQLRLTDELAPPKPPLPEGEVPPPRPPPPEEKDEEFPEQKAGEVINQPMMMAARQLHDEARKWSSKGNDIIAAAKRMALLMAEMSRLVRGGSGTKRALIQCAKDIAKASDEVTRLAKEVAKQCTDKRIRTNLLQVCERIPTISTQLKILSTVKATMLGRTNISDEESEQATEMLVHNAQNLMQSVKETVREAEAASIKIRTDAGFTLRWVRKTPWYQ
Procedure: 96-well Maxisorp (Nunc) ELISA plates were coated with 30 nM full-length vinculin, vinculin constructs or IpaA proteins in binding buffer (25 mM Tris pH 7.4, 100 mM NaCl and 1 mM β-Mercaptoethanol). The wells were blocked with PBS-BSA 2%, washed and incubated with half series dilutions of IpaA or vinculin proteins in binding buffer+0.2% BSA at room temperature for one hour. After incubation the plates were washed and incubated with an anti-IpaA (dilution: 1/2000) polyclonal primary antibody (Tran Van Nhieu et al., 1997. EMBO J. 16(10):2717-29) or anti-vinculin (dilution: 1/2000) m11.5 monoclonal primary antibody (ref. V4505, Sigma-Aldrich) in binding buffer+0.2% BSA for one hour at room temperature. Plates were washed and incubated with an HRP-coupled secondary anti-rabbit or anti mouse Ig antibodies (dilution: 1/32000, Jackson ImmunoResearch) for one hour.

talin H1-H4 [4] = target: T1, talin H1-H4; assay: Native-PAGE gel shift; format: binding
Procedure: Talin H1-H4 and IpaA peptides/proteins were incubated in binding buffer for 1 hour at 4° C. After incubation, the protein/peptides were mixed in a 2× Native loading buffer (62.5 mM Tris pH 6.8, Glycerol 25%) and separated by Tris-Glycine Native-PAGE electrophoresis. Gels were stained using standard colloidal Coomassie stain.
Talin H1-H4 and IpaA peptides/proteins at different molar ratios were incubated in binding buffer (25 mM Tris pH 7.4, 100 mM NaCl and 1 mM β-Mercaptoethanol) for 1 hour at 4° C. After incubation, the protein/peptides were mixed in a 2× Native loading buffer (62.5 mM Tris pH 6.8, Glycerol 25%) and separated by Tris-Glycine Native-PAGE electrophoresis. The Native PAGE electrophoresis gels were stained using standard colloidal Coomassie stain.

T1 sequence (Q9Y490 482-636): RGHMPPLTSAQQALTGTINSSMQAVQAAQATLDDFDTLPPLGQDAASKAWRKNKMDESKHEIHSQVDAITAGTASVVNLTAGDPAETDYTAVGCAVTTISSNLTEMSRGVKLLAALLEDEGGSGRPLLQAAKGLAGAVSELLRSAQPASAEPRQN

Molecule	complex formation with talin H1-H4 in solution (talin H1-H4 [1])	N (stoichiometry) (talin H1-H4 [2]; ITC non-linear fit)	ΔG free enthalpy (talin H1-H4 [2])	ΔH enthalpy (talin H1-H4 [2])	−TΔS entropic contribution (talin H1-H4 [2])	Kd (talin H1-H4 [2])	number of cells which migrated across a matrigel (melanocytes)	ligand concentration at which the saturation curve plateaus [3]	formation of a complex with talin H1-H4 (talin H1-H4 [4])	Kd (talin H1-H4 [2]; listed as A483 (VBS3))	concentration at which the complex with talin H1-H4 / migration shift could be detected (talin H1-H4 [4])
A524: IpaA 524-633, containing only IpaA VBS1 and VBS2 (protein, listed as Shigella flexneri, A524 / IpaA (524-633), IpaA 524-633, containing only IpaA VBS1 and VBS2) KSKDITKSTTEHRINNKLKVTDANIRNYVTETNADTIDKNHAIYEKAKEVSSALSKVLSKIDDTSAELLTDDISDLKNNNDITAENNNIYKAAKDVTTSLSKVLKNINKD	absence of complex formation	1.5	-7.448 kcal/mol	-3.979 kcal/mol	-3.469 kcal/mol	2030 nM	96 cells	25 nM	no migration shift could be detected	–	–
A483: amino acids 483 to 633 of SEQ ID NO: 1 (IpaA), containing IpaA VBS1, VBS2 and VBS3 (protein, listed as Shigella flexneri, A483 / IpaA (483-633)) GDTYLTRETIFEASKKVTNSLSNLISLIGTKSGTQERELQEKSKDITKSTTEHRINNKLKVTDANIRNYVTETNADTIDKNHAIYEKAKEVSSALSKVLSKIDDTSAELLTDDISDLKNNNDITAENNNIYKAAKDVTTSLSKVLKNINKD	compact globular complex corresponding to one talin H1-H4 dimer bound to one A483 molecule	–	-10.025 kcal/mol	-6.229 kcal/mol	-3.796 kcal/mol	24.9 nM	120 cells	25 nM	–	24.9 nM	≤ 5 µM
